{"source": "patent US7629315B2", "about": "“Compositions for blocking the inhibitory effect of human CRP on human leptin” (University of Pittsburgh of the Commonwealth System of …, priority 2005, dated 2009)", "molecules": {"B1": {"name": "rat CRP: rat C-reactive protein purified from fresh rat serum to >95% (protein)", "chain": "HEDMSKQAFVFPGVSATAYVSLEAESKKPLEAFTVCLYAHADVSRSFSIFSYATKTSFNEILLFWTRGQGFSIAVGGPEILFSASEIPEVPTHICATWESATGIVELWLDGKPRVRKSLQKGYIVGTNASIILGQEQDSYGGGFDANQSLVGDIGDVNMWDFVLSPEQINAVYVGRVFSPNVLNWRALKYETHGDVFIKPQLWPLTDCCES"}}, "key": {"human CRP": {"target": "T1, human CRP (Homo sapiens, UniProt P02741)", "T1 construct": "purchased CHEMICON International", "T1 sequence (P02741 19-224)": "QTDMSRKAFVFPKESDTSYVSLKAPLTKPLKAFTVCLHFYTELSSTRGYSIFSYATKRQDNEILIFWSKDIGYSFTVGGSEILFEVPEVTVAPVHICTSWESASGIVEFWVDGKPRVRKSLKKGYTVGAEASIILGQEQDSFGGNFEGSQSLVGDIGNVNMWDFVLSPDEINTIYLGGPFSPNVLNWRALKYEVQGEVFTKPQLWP", "assay": "Block of the inhibitory effect of human CRP on leptin-stimulated STAT3 phosphorylation in HEK-293 OB-Rb cells", "assay_type": "cell-based", "conditions": "for restoration of leptin-stimulated STAT3 activation in the presence of human CRP: hexamer at concentrations as high as 0.8 μM, human CRP 8 μg/ml, human leptin 2 nM, 1-hour pre-incubation", "method": "In the in vitro experiment, Peptide-E was pre-incubated with human CRP for 30 minutes before being mixed with human leptin for an additional 45 minutes. The resultant mixture was then added to the HEK-293 cells overexpressing the long form leptin receptors, OB-Rb (FIG. 9). After a 30 minute incubation, the cells were harvested in a protein extraction buffer (Zhao, et al., 1997, PNAS). The signaling of leptin in the cells, measured by its ability to stimulate tyrosine phosphorylation on STAT3 in a western blot assay, was evaluated.\nUsing a design similar to the in vitro experiment described in Example 5, the hexamer of the '388 patent (SEQ ID NO:3) was pre-incubated with human CRP (8 μg/ml) and human leptin (2 nM) for 1-hour. The resultant mixture was then added to the HEK-293 cells overexpressing the long form leptin receptors, OB-Rb (FIG. 12). After a 30 minute incubation, the cells were harvested in a protein extraction buffer. The signaling of human leptin in the cells, measured by its ability to stimulate tyrosine phosphorylation on STAT3 in a western blot assay, was evaluated."}, "ob/ob mice": {"system": "ob/ob mice", "assay": "Co-infusion of Peptide E with human CRP and leptin into ob/ob mice", "assay_type": "in vivo, mouse", "conditions": "for restoration of leptin effect on body weight / restoration of leptin effect on food-intake: Pep-E 24 or 48 μg/day/mouse with human CRP 48 and leptin 12 μg/day/mouse", "method": "FIG. 10. […] Infusion dosages for human CRP and leptin were 48 μg/day/mouse and 12 μg/day/mouse, respectively. The infusion rate for Pep-E (P) was 24 μg/day/mouse (medium dosage, abbreviated “m”) and 48 μg/day/mouse (high dosage, abbreviated “h”). Food-intake (FIGS. 10(A & C)) and body weight (FIGS. 10(B & D)) were monitored daily throughout the infusion. The arrows in A-D indicate the day of surgery. At the end of infusion, blood samples were collected for the measurement of blood-glucose, human CRP, and human leptin. The serum concentrations of human CRP and human leptin were 0.85±0.1 μg/ml and 18 ng±2 ng/ml, respectively. […] The glucose concentration from the mice infused with human CRP and leptin, but NOT with Pep-E was also shown.\nIn the in vivo experiment, the Peptide E polypeptide was co-infused through mini-osmotic pumps with human CRP and leptin into the ob/ob mice. Food-intake (24 hours) and body weight were followed during the infusion period (FIG. 10A-10D)."}, "[1]": {"system": "leptin-induced tyrosine phosphorylation of STAT3", "assay": "Leptin-induced STAT3 tyrosine phosphorylation in HEK293 cells expressing OB-Rb (western blot), human leptin", "assay_type": "cell-based", "conditions": "human leptin 2 nM, protein pre-incubated with leptin, HEK293 OB-Rb cells", "method": "(§1) 2. Signaling Studies: A HEK293 cell line stably expressing the human long-form receptor, OB-Rb (M. Friedman-Einat et al., 2003, Regul. Pept. 111, 77) was serum starved for 2-h before addition of leptin and CRP. Leptin (SEQ ID NO:4), in the presence or absence of C-reactive proteins, was pre-incubated in μ-MEM for 30 minutes at 37° C. before applied to the cells. After a 30-incubation with leptin (SEQ ID NO:4), the cells were harvested in a previously described protein lysis buffer. A. Z. Zhao et al., 1997, Proc. Natl. Acad. Sci. U.S.A. 94, 322. The protein extract was subjected to a western blot assay with an anti-phospho-STAT3 specific antibody (Cell Signaling, Beverly, Mass.). For studies involving the primary hypothalamic neurons, the rat hypothalamus was surgically isolated right after euthanasia, and immediately placed in the DMEM for incubation with leptin in the presence or absence of CRP.\n(§2) To determine if the interaction between CRP and leptin influences cellular actions of leptin, we assessed the ability of leptin to stimulate tyrosine phosphorylation of STAT3 and PI3-kinase activity in the presence of CRP in vitro."}, "[2]": {"system": "mouse leptin-induced STAT3 activation", "assay": "Leptin-induced STAT3 tyrosine phosphorylation in HEK293 cells expressing OB-Rb, mouse leptin", "assay_type": "cell-based", "conditions": "murine leptin 2 nM", "method": "as §1, §2"}, "[3]": {"system": "insulin-stimulated PI3-kinase", "assay": "Insulin-stimulated PI3-kinase activity in differentiated 3T3-L1 adipocytes (specificity control)", "assay_type": "cell-based"}, "mouse leptin": {"target": "mouse leptin (Mus musculus, UniProt P41160)", "sequence (P41160 22-167)": "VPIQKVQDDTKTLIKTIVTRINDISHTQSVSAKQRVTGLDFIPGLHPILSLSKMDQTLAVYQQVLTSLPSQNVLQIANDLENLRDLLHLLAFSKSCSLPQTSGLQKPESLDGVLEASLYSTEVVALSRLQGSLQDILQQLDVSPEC", "assay": "Immunoprecipitation of rat CRP with mouse leptin", "assay_type": "binding", "conditions": "leptin and CRP mixture and rat serum", "method": "Direct binding of […] and leptin in an immunoprecipitation assay was determined. Rat CRP was purified from fresh rat serum to >95% employing a previously established affinity-purification protocol. J. Tseng et al., 1988, Mol. Immunol. 25, 679. This purity is very similar to the human CRP preparation obtained from a commercial source (CHEMICON International). The purified human- and rat-CRP proteins were pre-mixed with recombinant human and mouse leptin, respectively, before addition of specific antibodies against human- and mouse-leptin. The concentrations of CRP and leptin in the precipitation reaction were all within the physiological ranges (M. B. Schulze et al., 2004, Diabetes Care 27, 889; T. Kazumi et al., 2003, Metabolism 52, 1113).\nIn parallel experiments, recombinant leptin was also pre-mixed with human- or rat serum to allow for potential direct interactions prior to immunoprecipitation. The precipitation pellets obtained were subjected to western blot assays with specific anti-CRP antibodies. […] Because of the similarities between rat CRP and human CRP in the binding to leptin and of our main interest in the relevance to human obesity, focus was placed on potential functional effects of human CRP in the subsequent experiments."}}, "note": "Entries after “also recorded” stand apart in the source; their conditions may differ. [ ]: non-standard residue; d: D form.", "data": [{"molecule": "NH2-S-C-H-L-P-W-COOH (H-SCHLPW-OH; listed as Homo sapiens) [SEQ ID NO:3, 6 amino acid polypeptide reported in U.S. Pat. No. 6,777,388 to Grasso, et al]", "values": [{"measurement": "restoration of leptin-stimulated STAT3 activation in the presence of human CRP", "setting": "human CRP", "value": "unable to block the negative effect of human CRP on the signaling capability of human leptin; also recorded: failed to restore leptin-stimulated STAT3 activation"}]}, {"molecule": "NH2—W—P—L—H—C—S—COOH (H-[dW][dP][dL][dH][dC][dS]-OH; SMILES CC(C)C[C@@H](NC(=O)[C@H]1CCCN1C(=O)[C@H](N)Cc1c[nH]c2ccccc12)C(=O)N[C@H](Cc1c[nH]cn1)C(=O)N[C@H](CS)C(=O)N[C@H](CO)C(=O)O; listed as Homo sapiens) [SEQ ID NO:5, D-form hex-peptide reported by Grasso, et al]", "values": [{"measurement": "restoration of leptin-stimulated STAT3 activation in the presence of human CRP", "setting": "human CRP", "value": "failed to restore leptin-stimulated STAT3 activation"}]}, {"molecule": "Peptide E: chemically synthesized polypeptide of 27 amino acids representing a segment of human leptin (SEQ ID NO:2) (LAFSKSCHLPWASGLETLDSLGGVLEA; listed as Homo sapiens)", "values": [{"measurement": "STAT phosphorylation by the peptide itself", "setting": "human CRP; Peptide-E by itself", "value": "did not induce any changes in STAT phosphorylation"}, {"measurement": "restoration of leptin effect on body weight", "setting": "ob/ob mice", "value": "could restore both of these functions of human leptin"}, {"measurement": "restoration of leptin effect on food-intake", "setting": "ob/ob mice", "value": "could restore both of these functions of human leptin"}, {"measurement": "restoration of leptin effect on body weight", "setting": "ob/ob mice; listed as Peptide-E", "value": "restored the physiological effects of human leptin"}, {"measurement": "restoration of leptin effect on food-intake", "setting": "ob/ob mice; listed as Peptide-E", "value": "restored the physiological effects of human leptin"}, {"measurement": "restoration of leptin effect on blood glucose", "setting": "ob/ob mice; end of infusion, high dosage of Pep-E 48 μg/day/mouse with human CRP and leptin", "value": "could restore the beneficial effect of human leptin on blood glucose"}]}, {"molecule": "human serum amyloid P-component (SAP): human serum amyloid P-component, control protein [reference compound]", "values": [{"measurement": "effect on leptin-induced tyrosine phosphorylation of STAT3", "setting": "[1]", "value": "did not significantly alter leptin-stimulated phosphorylation of STAT3"}]}, {"molecule": "B1", "values": [{"measurement": "effect on mouse leptin-induced STAT3 phosphorylation", "setting": "[2]", "value": "attenuate the tyrosine-phosphorylation of STAT3; also recorded: higher concentrations of rat- than human-CRP are required to achieve the equivalent effects; also recorded: Attenuating effects"}, {"measurement": "effect on insulin-stimulated PI3-kinase activity", "setting": "[3]", "value": "did not block insulin-stimulated PI3-kinase"}, {"measurement": "direct binding to mouse leptin (immunoprecipitation with anti mouse-leptin, anti-CRP western blot)", "setting": "mouse leptin", "value": "could also bring down rat CRP"}]}]}
